Holding throughout (assay): HPLC product assay, yeast microsomes, Eadie-Hofstee plot
What all share (assay type): biochemical, Lupinus albus

Substrate in data set [1]: CC(C)=CCOP(=O)(O)OP(=O)(O)O
Conditions: co-substrate 400 μM kaempferol, 10 mM Mg2+, MOPS pH 7.0, 30°C.

Substrate in data set [2]: COc1ccc(-c2oc3cc(O)cc(O)c3c(=O)c2O)cc1
Conditions: co-substrate DMAPP, 10 mM Mg2+, MOPS pH 7.0, 30°C.

Substrate in data set [3]: O=C1c2c(O)cc(O)cc2O[C@H](c2ccc(O)cc2)[C@H]1O
Conditions: co-substrate DMAPP, 10 mM Mg2+, MOPS pH 7.0, 30°C.

Substrate in data set [4]: O=c1c(O)c(-c2ccc(O)c(O)c2)oc2cc(O)cc(O)c12
The settings on record: co-substrate DMAPP, 10 mM Mg2+, MOPS pH 7.0, 30°C.

Substrate in data set [5]: O=c1c(O)c(-c2ccc(O)c(O)c2)oc2cc(O)ccc12
The settings on record: co-substrate DMAPP, 10 mM Mg2+, MOPS pH 7.0, 30°C.

Substrate in data set [6]: O=c1c(O)c(-c2ccc(O)cc2)oc2cc(O)cc(O)c12
Conditions: co-substrate DMAPP, 10 mM Mg2+, MOPS pH 7.0, 30°C.

Substrate in data set [7]: O=c1c(O)c(-c2ccc(O)cc2O)oc2cc(O)cc(O)c12
The settings on record: co-substrate DMAPP, 10 mM Mg2+, MOPS pH 7.0, 30°C.

Substrate in data set [8]: O=c1c(O)c(-c2ccccc2)oc2cc(O)cc(O)c12
The settings on record: co-substrate DMAPP, 10 mM Mg2+, MOPS pH 7.0, 30°C.

For orientation: Km means the substrate concentration at which the rate is half of its maximum.

B1: LaPT2 (Lupinus albus) (protein)
chain: MGFVLAATSFPKAPSFTSGRSSWNSKEYTKNYYASSHVTTLWHKTGIIQKEPCFMMAWPQNLKLHCKVKGGDKRNYVMNAASGKSNEYETQDLDQRNNWGTLINALHVFFKFIRPTATLSLLLGATLTTLIAVEKLSDISAAYFIGLLQVMVVSSCMQVFMAGLNQLYDVEIDKINKPYLPLVSGELPFKNGVIIVATTFILGHLFPLIIGSGPLFWSFVFSSSLAIAYCADLPLLRWKRHSALTALNYIIDLGGVKPLGYVLHMQTYVFKRPPTFSRPLIFCMAMSSVFAIIIAIFKDITDMEGDEKFGIKSLSLHLGKKPVFWICVSLLQMAYVVAILMGTLSPFLWVKIAMGLGHGILASLVSYYANSVDLKSNPAIQSFYMFIWKLLTVEYFLIPLFR
notes: open reading frame in pDR196GW, yeast W303A1 microsomal fraction; contig deduced as 407 aa (GFP construct named 88-403); predicted 87-aa transit peptide, no truncation stated for the assay
On to B1, for which the Michaelis constant (Km) in data set [1] turned out to be 66.11 ± 7.54 µM; in data set [2] it was 115.19 ± 34.25 µM; in data set [3], 20.08 ± 4.44 µM; in data set [4], 102.81 ± 6.41 µM; in data set [5] it was 10.02 ± 3.19 µM; in data set [6], 74.07 ± 3.78 µM. Also, the Km in data set [7] amounted to 20.85 ± 3.79 µM; in data set [8], 20.66 ± 2.91 µM.

The values above are taken from publication PMC8226212, “LaPT2 Gene Encodes a Flavonoid Prenyltransferase in White Lupin” (Frontiers in Plant Science, 2021).
